From patent US20120225828A1 (PALATIN TECHNOLOGIES, published 2012)
Bridge positions count the residues as written; N and C are the ends. Square brackets hold non-standard residues; d marks the D form. Nle = CCCC[C@H](N)C(=O)O; Dab = NCC[C@H](N)C(=O)O

biological target: human melanocortin-1 receptor hMCR-1 expressed by the human melanoma cell line HBL (human, UniProt Q01726 1-317); assay: cell-based or functional assay
Sequence (Q01726 whole entry): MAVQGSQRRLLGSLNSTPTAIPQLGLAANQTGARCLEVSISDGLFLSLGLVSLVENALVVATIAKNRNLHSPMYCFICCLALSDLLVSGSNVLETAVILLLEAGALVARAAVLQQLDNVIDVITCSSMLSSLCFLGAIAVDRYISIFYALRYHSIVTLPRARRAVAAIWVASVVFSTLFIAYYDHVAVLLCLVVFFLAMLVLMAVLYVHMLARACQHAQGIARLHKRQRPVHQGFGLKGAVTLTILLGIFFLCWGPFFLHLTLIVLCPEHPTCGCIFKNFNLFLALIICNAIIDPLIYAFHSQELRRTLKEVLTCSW

| MC-1 EC50 (average; cAMP HBL) [nM] | MC-1 Emax (average; cAMP HBL) [%] | Binder |
| --- | --- | --- |
| 4 | 59 | Ac-[Nle]EH[dF]G[Dab]W-NH2 (lactam 2-6; SMILES CCCC[C@H](NC(C)=O)C(=O)N[C@H]1CCC(=O)NCC[C@@H](C(=O)N[C@@H](Cc2c[nH]c3ccccc23)C(N)=O)NC(=O)CNC(=O)[C@@H](Cc2ccccc2)NC(=O)[C@H](Cc2c[nH]cn2)NC1=O) [Ac-Nle-cyclo(Glu-His-D-Phe-Gly-Dab)-Trp-NH2 (SEQ ID NO: 50)] |
|  | 100 | Ac-[Nle]ER[dF]R[Dab]W-NH2 (lactam 2-6) [Ac-Nle-cyclo(Glu-Arg-D-Phe-Arg-Dab)-Trp-NH2 (SEQ ID NO: 53)] |

The remaining lines, values behind:

| Binder | MC-1 EC50 (average; cAMP HBL) [nM] | MC-1 Emax (average; cAMP HBL) [%] |
| --- | --- | --- |
| Ac-[Nle]EH[dF]A[Dab]W-NH2 (lactam 2-6; SMILES CCCC[C@H](NC(C)=O)C(=O)N[C@H]1CCC(=O)NCC[C@@H](C(=O)N[C@@H](Cc2c[nH]c3ccccc23)C(N)=O)NC(=O)[C@H](C)NC(=O)[C@@H](Cc2ccccc2)NC(=O)[C@H](Cc2c[nH]cn2)NC1=O) [Ac-Nle-cyclo(Glu-His-D-Phe-Ala-Dab)-Trp-NH2 (SEQ ID NO: 51)] | 0.115 | 72 |
| Ac-[Nle]EA[dF]R[Dab]W-NH2 (lactam 2-6) [Ac-Nle-cyclo(Glu-Ala-D-Phe-Arg-Dab)-Trp-NH2 (SEQ ID NO: 52)] |  | 86 |
